Laboratory results from US20140072613A1 (published 2014).

T1: TSSK1(h) (human, UniProt Q9BXA7 1-367)
T1 sequence (looked up): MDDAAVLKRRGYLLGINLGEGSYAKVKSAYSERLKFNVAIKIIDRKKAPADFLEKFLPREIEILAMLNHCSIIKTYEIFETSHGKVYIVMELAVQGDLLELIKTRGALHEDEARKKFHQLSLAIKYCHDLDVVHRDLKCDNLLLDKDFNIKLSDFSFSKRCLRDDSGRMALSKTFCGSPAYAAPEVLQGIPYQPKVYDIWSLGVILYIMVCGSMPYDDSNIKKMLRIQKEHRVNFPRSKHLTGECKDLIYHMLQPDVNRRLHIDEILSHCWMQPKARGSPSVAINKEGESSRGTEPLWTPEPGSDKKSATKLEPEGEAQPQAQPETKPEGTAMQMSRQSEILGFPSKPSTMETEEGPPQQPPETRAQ

T2: PDK1(h) (human, UniProt O15530 1-556, limits assumed)
T2 sequence (looked up): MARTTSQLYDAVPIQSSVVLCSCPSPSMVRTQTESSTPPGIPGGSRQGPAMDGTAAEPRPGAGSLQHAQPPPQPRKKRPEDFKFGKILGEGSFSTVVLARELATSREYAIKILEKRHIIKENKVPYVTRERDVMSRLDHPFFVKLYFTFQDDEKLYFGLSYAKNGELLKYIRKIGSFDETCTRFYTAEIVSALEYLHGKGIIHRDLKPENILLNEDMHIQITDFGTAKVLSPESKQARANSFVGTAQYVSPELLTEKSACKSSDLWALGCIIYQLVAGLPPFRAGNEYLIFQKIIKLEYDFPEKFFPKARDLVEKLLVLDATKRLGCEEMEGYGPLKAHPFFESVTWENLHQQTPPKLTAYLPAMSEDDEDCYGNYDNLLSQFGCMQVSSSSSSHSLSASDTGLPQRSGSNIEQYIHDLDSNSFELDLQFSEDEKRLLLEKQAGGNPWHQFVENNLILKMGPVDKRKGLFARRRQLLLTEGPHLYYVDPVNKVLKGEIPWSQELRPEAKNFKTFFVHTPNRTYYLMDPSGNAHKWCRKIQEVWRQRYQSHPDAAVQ

T3: SAPK4(h) (human, UniProt O15264 1-365)
T3 sequence (looked up): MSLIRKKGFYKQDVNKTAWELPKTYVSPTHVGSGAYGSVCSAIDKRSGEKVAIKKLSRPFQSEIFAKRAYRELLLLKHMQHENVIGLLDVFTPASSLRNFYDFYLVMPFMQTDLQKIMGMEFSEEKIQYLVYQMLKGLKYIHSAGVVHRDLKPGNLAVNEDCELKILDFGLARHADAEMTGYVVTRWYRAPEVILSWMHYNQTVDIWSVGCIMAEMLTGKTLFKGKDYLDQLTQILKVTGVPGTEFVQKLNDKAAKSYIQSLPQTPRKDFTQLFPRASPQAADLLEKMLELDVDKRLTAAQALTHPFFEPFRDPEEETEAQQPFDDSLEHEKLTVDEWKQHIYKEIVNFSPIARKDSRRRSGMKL

T4: TBK1(h) (human, UniProt Q9UHD2 1-729)
T4 sequence (looked up): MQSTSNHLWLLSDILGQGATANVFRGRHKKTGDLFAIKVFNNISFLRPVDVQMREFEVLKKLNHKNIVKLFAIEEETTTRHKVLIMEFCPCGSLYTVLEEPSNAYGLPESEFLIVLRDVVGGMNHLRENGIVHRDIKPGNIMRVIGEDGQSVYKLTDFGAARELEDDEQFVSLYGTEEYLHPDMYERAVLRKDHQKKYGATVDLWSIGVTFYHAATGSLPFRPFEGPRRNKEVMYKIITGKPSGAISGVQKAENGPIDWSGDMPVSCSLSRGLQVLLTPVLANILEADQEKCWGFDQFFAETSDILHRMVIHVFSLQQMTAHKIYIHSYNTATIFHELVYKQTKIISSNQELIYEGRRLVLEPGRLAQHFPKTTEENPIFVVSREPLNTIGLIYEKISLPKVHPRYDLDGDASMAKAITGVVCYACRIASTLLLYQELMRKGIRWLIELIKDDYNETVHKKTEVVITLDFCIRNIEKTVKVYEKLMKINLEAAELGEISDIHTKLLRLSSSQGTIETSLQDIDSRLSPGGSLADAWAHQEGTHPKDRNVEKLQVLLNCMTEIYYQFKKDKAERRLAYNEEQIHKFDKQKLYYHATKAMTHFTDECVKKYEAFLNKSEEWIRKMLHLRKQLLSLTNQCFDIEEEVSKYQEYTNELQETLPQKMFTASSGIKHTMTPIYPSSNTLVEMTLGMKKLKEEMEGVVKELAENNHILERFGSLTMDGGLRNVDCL

B1: MMI-0400 (peptide)
peptide: KAFAKLAARLYRKALARQLGVAA
B2: MMI-0300 (peptide)
peptide: FAKLAARLYRKALARQLGVAA

Key:
Experiment in all cases: cell-based or functional assay
JNK1α1(h) = JNK1α1(h) (human, UniProt P45983-2 1-384)
CLK2(h) = CLK2(h) (human, UniProt P49760 1-499, limits assumed)
TSSK1(h) = biological target: T1, TSSK1(h)
CaMKIIγ(h) = CaMKIIγ(h) (human, UniProt Q13555 1-558, limits assumed)
PDK1(h) = biological target: T2, PDK1(h)
SAPK4(h) = biological target: T3, SAPK4(h)
TBK1(h) = biological target: T4, TBK1(h)
cSRC(h) = cSRC(h) (human, UniProt P12931 1-536)
Src(T341M)(h) = Src(T341M)(h) (human, UniProt P12931 1-536, limits assumed)
6SK3β(h) = 6SK3β(h) (human, UniProt P49841 1-420)
PDGFRβ(h) = PDGFRβ(h) (human, UniProt P09619 557-1106, limits assumed)
PKBβ(h) = PKBβ(h) (human, UniProt P31751 1-481, limits assumed)

| Binder | % activity, 100 µM (JNK1α1(h)) [%] | % activity, 100 µM (CLK2(h)) [%] | % activity, 100 µM (TSSK1(h)) [%] | % activity, 100 µM (CaMKIIγ(h)) [%] | % activity, 100 µM (PDK1(h)) [%] | % activity, 100 µM (SAPK4(h)) [%] | % activity, 100 µM (TBK1(h)) [%] | % activity, 100 µM (cSRC(h)) [%] | % activity, 100 µM (Src(T341M)(h)) [%] | % activity, 100 µM (6SK3β(h)) [%] | % activity, 100 µM (PDGFRβ(h)) [%] | % activity, 100 µM (PKBβ(h)) [%] |
| --- | --- | --- | --- | --- | --- | --- | --- | --- | --- | --- | --- | --- |
| B1 | 98 | 116 | 79 | 3 | 159 | 91 | 39 | 14 | 76 | 202 | 53 | 98 |
| B2 | 97 | 103 | 79 | 5 | 135 | 96 | 37 | 26 | 70 | 205 | 81 | 84 |
